Reference: US7662633B2, “Method of screening for inhibitors of osteopontin” (GlaxoSmithKline LLC, priority 2000, dated 2010)
Ends that are not written are not given here.

Key:
Format in all cases: cell-based
α4β1 [1] = biological target: T1, α4β1 (Homo sapiens, UniProt P05556+P13612); assay: J6 cell adhesion to GST-CS-1 (CS-1 fragment of fibronectin); settings: for Relative potency compared to parent peptide SVVYGLR against α4β1 (J6 adhesion to GST-CS-1): SVVYGLR peptide with the residue mutated to alanine; for Inhibition of J6 cell adhesion to GST-CS-1 by synthetic peptide (α4β1-CS-1 interaction): varying peptide concentrations, 35 min 37° C.
T1 construct: Of the integrins analysed J6 express only α5β1 and α4βwhile HL60 express α4β1 and α5β1 and αLβ2; endogenous in cells; host or cells: J6 cells
Experimental: (§1) All proteins were coated onto MAXISORP plates (Nunc) overnight at 4° C. Each protein was diluted in PBS at the concentrations indicated, and a total volume of 100 μl added per well. Plates were washed twice in PBS then blocked with 3% BSA/PBS for 1 hr at 37° C., and finally washed twice in PBS. Routinely HL60 cells were pelleted and washed once in HBSS (Sigma) then spread in 25 mM Hepes 7.5, HBSS at 2×10^6 ml^−1 (100 μl per well) in the presence of 0.2 mM MnCl2 and 50 ng/ml TPA, with other additions as indicated. J6 cells were likewise pelleted and washed once in HBSS (Sigma) then spread in 25 mM Hepes (pH7.5), HBSS at 2×10^6ml^−1 (100 μl per well) in the presence of 0.2 mM MnCl2 and other additions as indicated. For antibody inhibition cells were preincubated with the antibody (10 μg/ml) on ice for 10 minutes. Cells were then allowed to attach for 35 minutes at 37° C., washed twice in PBS, once in ethanol, and fixed in ethanol for 20 minutes at room temperature. For quantitation cells were visualised by staining with 0.1% crystal violet (Sigma) for 10 minutes then lysed in 0.5% TRITON X-100 (Sigma) and read at 570 nm in a Wallac Victor plate reader.

α4β1 [2] = assay: as above; settings: J6/CS-1 versus RPMI8866/zz-MAdCAM
Experimental: as §1

α4β7 = biological target: T2, α4β7 (Homo sapiens, UniProt P13612+P26010); assay: α4β7 adhesion assay: RPMI8866 cell adhesion to zz-MAdCAM; settings: for Relative potency compared to parent peptide SVVYGLR against α4β7 (RPMI8866 adhesion to zz-MAdCAM): SVVYGLR peptide with the residue mutated to alanine; for Inhibition of RPMI8866 cell adhesion to zz-MAdCAM by synthetic peptide: varying peptide concentrations, 20 min 37° C.
T2 construct: RPMI8866 cells which express α4β7, and small amounts of α4β1 and α5β1 were used; endogenous in cells; host or cells: RPMI8866 cells
T2 sequence (P13612 34-1032): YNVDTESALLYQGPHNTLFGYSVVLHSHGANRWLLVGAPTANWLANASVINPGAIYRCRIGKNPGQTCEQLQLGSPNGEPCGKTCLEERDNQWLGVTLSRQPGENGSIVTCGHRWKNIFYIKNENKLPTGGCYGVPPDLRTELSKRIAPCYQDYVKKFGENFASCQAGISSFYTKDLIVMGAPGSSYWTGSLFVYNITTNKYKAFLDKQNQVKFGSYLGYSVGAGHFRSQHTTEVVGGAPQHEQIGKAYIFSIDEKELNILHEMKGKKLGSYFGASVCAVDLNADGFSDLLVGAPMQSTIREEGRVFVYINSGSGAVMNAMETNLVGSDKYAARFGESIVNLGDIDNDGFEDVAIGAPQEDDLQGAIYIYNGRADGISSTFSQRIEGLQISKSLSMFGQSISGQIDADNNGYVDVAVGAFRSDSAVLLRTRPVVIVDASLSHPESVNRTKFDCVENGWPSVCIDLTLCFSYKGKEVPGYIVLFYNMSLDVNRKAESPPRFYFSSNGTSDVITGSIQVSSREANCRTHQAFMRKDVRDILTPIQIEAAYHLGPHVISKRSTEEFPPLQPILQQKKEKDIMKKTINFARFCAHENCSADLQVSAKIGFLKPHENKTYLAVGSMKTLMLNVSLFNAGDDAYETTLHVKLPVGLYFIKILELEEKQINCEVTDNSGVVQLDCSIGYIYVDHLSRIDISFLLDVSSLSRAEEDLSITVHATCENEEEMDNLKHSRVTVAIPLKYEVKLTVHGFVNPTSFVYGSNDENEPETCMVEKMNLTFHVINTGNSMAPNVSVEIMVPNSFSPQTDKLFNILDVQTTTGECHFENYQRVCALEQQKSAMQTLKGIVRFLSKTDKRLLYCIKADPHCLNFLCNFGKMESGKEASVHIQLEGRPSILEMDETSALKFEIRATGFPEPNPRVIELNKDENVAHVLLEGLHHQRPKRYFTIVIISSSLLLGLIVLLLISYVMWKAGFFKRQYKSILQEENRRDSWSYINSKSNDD
T2 sequence (P26010 20-798): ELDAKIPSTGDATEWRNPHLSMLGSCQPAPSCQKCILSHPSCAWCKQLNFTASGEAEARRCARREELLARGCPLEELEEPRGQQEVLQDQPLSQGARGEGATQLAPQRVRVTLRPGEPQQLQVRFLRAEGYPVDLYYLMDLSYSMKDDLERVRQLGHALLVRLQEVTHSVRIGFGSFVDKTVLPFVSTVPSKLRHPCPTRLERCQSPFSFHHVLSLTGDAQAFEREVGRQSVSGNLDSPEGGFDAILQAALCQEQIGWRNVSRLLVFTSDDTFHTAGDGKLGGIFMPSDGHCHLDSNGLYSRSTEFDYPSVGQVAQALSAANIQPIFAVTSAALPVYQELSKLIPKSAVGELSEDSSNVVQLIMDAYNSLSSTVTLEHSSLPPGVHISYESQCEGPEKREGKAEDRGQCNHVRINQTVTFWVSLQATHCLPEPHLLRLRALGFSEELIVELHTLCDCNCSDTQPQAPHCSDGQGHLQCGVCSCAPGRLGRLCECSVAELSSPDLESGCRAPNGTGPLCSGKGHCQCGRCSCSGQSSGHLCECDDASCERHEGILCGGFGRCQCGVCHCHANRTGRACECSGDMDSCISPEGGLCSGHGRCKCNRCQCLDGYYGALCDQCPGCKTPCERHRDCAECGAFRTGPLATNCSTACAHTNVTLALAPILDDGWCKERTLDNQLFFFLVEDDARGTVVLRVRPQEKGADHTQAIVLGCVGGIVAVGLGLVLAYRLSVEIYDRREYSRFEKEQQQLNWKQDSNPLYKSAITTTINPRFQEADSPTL
Experimental: The recombinant zz-MAdCAM was absorbed onto Maxisorp plate pre-coated for 2.5 hours at 37° C. with 100 μL of human IgG, and then washed twice with PBS. For capture the recombinant zz-MAdCAM was diluted to the appropriate concentration in 3% BSA/PBS, 100 μl added to each well, and incubated overnight at 4° C. Prior to use plates were washed twice in PBS.
For the α4β7 adhesion assay RPMI8866 cells were washed in cation free HBSS supplemented with 1 mM EDTA, pelleted and labelled by incubating with BCECF (Molecular Probes) in cation-free HBSS at 37° C. for 10 minutes. At this stage cells were also co-incubated with […] human IgG to block endogenous Fc receptors. Cells were then washed once more in cation-free HBSS and then used in the adhesion assay at a final concentration of 3×10^6 cells ml^−1 in the presence of the appropriate treatment as indicated. To prevent cells clumping the assay plate was finally centrifuged at 400 rpm for 3 minutes without the brake. Cells were then incubated for 20 minutes at 37° C. and then washed twice in PBS before reading directly in a plate reader. For antibody inhibition studies the cells were preincubated with the appropriate antibody at […] for 5 minutes at room temperature prior to being placed in the incubator.

α4β1 [3] = biological target: T1, α4β1; assay: J6 cell adhesion to GST fusion proteins of osteopontin (OPN); settings: 0.2 mM MnCl2, 35 min 37° C.
Experimental: as §1

T1 sequence (P05556 21-798, one chain of several): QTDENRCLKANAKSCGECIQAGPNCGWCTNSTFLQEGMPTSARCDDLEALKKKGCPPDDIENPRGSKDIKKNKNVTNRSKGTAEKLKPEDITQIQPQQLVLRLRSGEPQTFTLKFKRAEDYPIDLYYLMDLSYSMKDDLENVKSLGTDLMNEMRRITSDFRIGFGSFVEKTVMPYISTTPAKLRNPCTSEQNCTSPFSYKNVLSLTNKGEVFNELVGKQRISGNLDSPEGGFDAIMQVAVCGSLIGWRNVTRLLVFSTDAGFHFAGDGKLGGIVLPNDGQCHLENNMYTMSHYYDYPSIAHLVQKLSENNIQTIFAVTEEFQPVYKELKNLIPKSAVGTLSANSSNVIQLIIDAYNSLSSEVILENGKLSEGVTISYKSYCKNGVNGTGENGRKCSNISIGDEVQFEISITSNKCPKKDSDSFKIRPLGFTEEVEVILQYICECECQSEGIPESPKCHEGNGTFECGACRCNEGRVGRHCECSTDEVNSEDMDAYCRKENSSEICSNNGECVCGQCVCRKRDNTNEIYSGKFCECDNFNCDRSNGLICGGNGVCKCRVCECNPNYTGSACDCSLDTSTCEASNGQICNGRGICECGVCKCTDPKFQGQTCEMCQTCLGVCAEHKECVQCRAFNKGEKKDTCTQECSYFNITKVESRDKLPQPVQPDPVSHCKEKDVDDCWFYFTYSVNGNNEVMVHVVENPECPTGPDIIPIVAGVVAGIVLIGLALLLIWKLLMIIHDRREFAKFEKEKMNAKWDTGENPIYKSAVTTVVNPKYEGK

Arg168: SVVYGLR synthetic peptide in which Arg168 is mutated to alanine (SVVYGLA; SVVYGLR peptide; UniProt P10451 162-168, looked up, variant R168A)
Relative potency compared to parent peptide SVVYGLR against α4β1 (J6 adhesion to GST-CS-1) (α4β1 [1]): more potent
Selectivity between α4β1 and α4β7 on mutating the residue (α4β1 [2]): introduces a degree of selectivity
Relative potency compared to parent peptide SVVYGLR against α4β7 (RPMI8866 adhesion to zz-MAdCAM) (α4β7): less potent

FPTDLPA (listed as Homo sapiens) [synthetic peptide of OPN aa136-142]
Inhibition of J6 cell binding to CS-1 over the scrambled control at lower matrix concentrations (α4β1 [1]; lower matrix concentrations, data not shown): weak inhibition
Inhibition of J6 cell adhesion to GST-CS-1 by synthetic peptide (α4β1-CS-1 interaction) (α4β1 [1]): unable to inhibit binding to CS-1

GRVLYSV (Synthesized and/or Homo sapiens) [scrambled control peptide of SVVYGLR, reference compound]
Inhibition of RPMI8866 cell adhesion to zz-MAdCAM by synthetic peptide (α4β7): no effect

Gly166: SVVYGLR synthetic peptide in which Gly166 is mutated to alanine (SVVYALR; SVVYGLR peptide; UniProt P10451 162-168, looked up, variant G166A)
Selectivity between α4β1 and α4β7 on mutating the residue (α4β1 [2]): introduces a degree of selectivity

Leu167: SVVYGLR synthetic peptide in which Leu167 is mutated to alanine (SVVYGAR; SVVYGLR peptide; UniProt P10451 162-168, looked up, variant L167A)
Relative potency compared to parent peptide SVVYGLR against α4β1 (J6 adhesion to GST-CS-1) (α4β1 [1]): relative potency similar to that observed with the blocked peptide
Relative potency compared to parent peptide SVVYGLR against α4β7 (RPMI8866 adhesion to zz-MAdCAM) (α4β7): relative potency similar to that observed with the blocked peptide

SVVYGLR (VARIANT 2 The carboxy terminal end can be, for example COO-, COOH, or CONH2, see specification, for example Figures 10, 11, and 13; listed as Homo sapiens) [synthetic peptide of OPN aa162-168]
Potency at blocking J6 adhesion to CS-1 compared with the CS-1 peptide itself (α4β1 [1]): only slightly less potent
Inhibition of J6 cell adhesion to GST-CS-1 by synthetic peptide (α4β1-CS-1 interaction) (α4β1 [1]): blocked adhesion to CS-1
Inhibition of RPMI8866 cell adhesion to zz-MAdCAM by synthetic peptide (α4β7): inhibited adhesion

SVVYGLR-CONH2 (SVVYGLR-NH2; listed as Homo sapiens) [SVVYGLR (SEQ ID NO: 4)-CONH2, capped peptide lacking the acidic carboxy terminus]
Inhibition of J6 cell adhesion to GST-CS-1 by synthetic peptide (α4β1-CS-1 interaction) (α4β1 [1]): abrogated the ability
Inhibition of RPMI8866 cell adhesion to zz-MAdCAM by synthetic peptide (α4β7): abrogated the ability

Tyr165: SVVYGLR synthetic peptide in which Tyr165 is mutated to alanine (SVVAGLR; SVVYGLR peptide; UniProt P10451 162-168, looked up, variant Y165A)
Relative potency compared to parent peptide SVVYGLR against α4β1 (J6 adhesion to GST-CS-1) (α4β1 [1]): reduced the potency
Relative potency compared to parent peptide SVVYGLR against α4β7 (RPMI8866 adhesion to zz-MAdCAM) (α4β7): reduced the potency

Val163: SVVYGLR synthetic peptide in which Val163 is mutated to alanine (SAVYGLR; SVVYGLR peptide; UniProt P10451 162-168, looked up, variant V163A)
Relative potency compared to parent peptide SVVYGLR against α4β1 (J6 adhesion to GST-CS-1) (α4β1 [1]): reduced the potency
Relative potency compared to parent peptide SVVYGLR against α4β7 (RPMI8866 adhesion to zz-MAdCAM) (α4β7): reduced the potency

Val164: SVVYGLR synthetic peptide in which Val164 is mutated to alanine (SVAYGLR; SVVYGLR peptide; UniProt P10451 162-168, looked up, variant V164A)
Relative potency compared to parent peptide SVVYGLR against α4β1 (J6 adhesion to GST-CS-1) (α4β1 [1]): minor contribution to binding
Relative potency compared to parent peptide SVVYGLR against α4β7 (RPMI8866 adhesion to zz-MAdCAM) (α4β7): minor contribution to binding

aa17-168: GST fusion protein representing the thrombin cleaved fragment of OPN
Ability of coated GST-OPN fusion protein to support J6 cell adhesion (α4β1 [3]): adhered

aa17-168RAD: GST fusion of thrombin cleaved OPN fragment with RGD motif mutated to RAD
Ability of coated GST-OPN fusion protein to support J6 cell adhesion (α4β1 [3]): did not affect binding

aa17-314: GST fusion protein representing full length human OPN
Ability of coated GST-OPN fusion protein to support J6 cell adhesion (α4β1 [3]): adhered

aa115-168: GST fusion, N-terminal deletion of the thrombin cleaved OPN fragment
Ability of coated GST-OPN fusion protein to support J6 cell adhesion (α4β1 [3]): bound

aa125-168: GST fusion, N-terminal deletion of the thrombin cleaved OPN fragment
Ability of coated GST-OPN fusion protein to support J6 cell adhesion (α4β1 [3]): bound

aa132-146: GST fusion protein of OPN aa132-146 (LVTDFPTDLPATEVF; also: GST fusion protein; UniProt P10451 132-146, looked up, fragment)
Ability of coated GST-OPN fusion protein to support J6 cell adhesion (α4β1 [3]): supported J6 cell adhesion

aa153-168: GST fusion protein of OPN aa153-168, Gly of RGD mutated to Ala (VDTYDGRADSVVYGLR; also: GST fusion protein)
Ability of coated GST-OPN fusion protein to support J6 cell adhesion (α4β1 [3]): supported J6 cell adhesion
